Experimental findings from the Human Domainome abundance scans (Beltran et al. 2025) are described below.

± gives the uncertainty stated by the source.

To fix the notation:
B1: POU domain, class 3, transcription factor 2, residues 262 to 338; numbered along this chain, P20265 (parent)
chain: EDTPTSDDLEQFAKQFKQRRIKLGFTQADVGLALGTLYGNVFSQTTICRFEALQLSFKNMCKLKPLLNKWLEEADSS
B2: Lysine-specific demethylase 2B, residues 656 to 722; numbered along this chain, Q8NHM5 (parent)
chain: LPHTAVCLVCGEAGKEDTVEEEEGKFNLMLMECSICNEIIHPGCLKIKESEGVVNDELPNCWECPKC

The variants in the first data set derive from B1. Briefly: abundance fitness (aPCA) (normalised: wild type 0, dead -1); higher = more abundant; growth selection in yeast, the domain comes from the species named. As to conditions: Homo sapiens.
For the variant K22I, the abundance fitness is -0.273 ± 0.068. As to K22P, the abundance fitness is -0.958 ± 0.18. Take G24F: the abundance fitness is -1 ± 0.25.

In the case of G24W, the abundance fitness was -0.784 ± 0.054. As for G24V, the abundance fitness was -0.814 ± 0.044.

G24P: the abundance fitness is -0.714 ± 0.069.

In the case of L55W, the abundance fitness was -0.645 ± 0.043.

For the variant L55Y, the abundance fitness was -0.285 ± 0.062. Same read-out and setting: with L66P the figure was -0.437 ± 0.064. Still for that read-out and setting: with L66S the figure was -0.423 ± 0.041; with L66R, -0.242 ± 0.029. Still for that read-out and setting: with L66H the figure was -0.274 ± 0.08.

Take L66E: the abundance fitness was -0.637 ± 0.061. For the variant L66Y, the abundance fitness is -0.22 ± 0.081. On the same count and under the same terms, with V41D the figure was 0.047 ± 0.069; with V41R, -0.023 ± 0.033; with V41K, 0.065 ± 0.057. Still for that read-out and setting: with V41I the figure was -0.157 ± 0.12; with A52T, -0.02 ± 0.036. Take A52H: the abundance fitness is -0.213 ± 0.1. On the same count and under the same terms, with A52K the figure was -0.07 ± 0.04; with A52Q, 0.056 ± 0.04. Same read-out and setting: with A52E the figure was 0.048 ± 0.031; with A52G, -0.078 ± 0.024.

Regarding A52D, the abundance fitness was 0.003 ± 0.051.

For the variant Q15P, the abundance fitness was -1.08 ± 0.23. The same measure, in the same setting: with Q15T the figure was -0.038 ± 0.045; with Q15C, -0.147 ± 0.059; with Q15W, -0.033 ± 0.034. As for Q15K, the abundance fitness was -0.003 ± 0.046. Same read-out and setting: with T45G the figure was -0.097 ± 0.026; with T45E, 0.143 ± 0.035. Take Q27V: the abundance fitness is -0.115 ± 0.032.

Q27Y: the abundance fitness is 0.084 ± 0.17.

In the case of Q27P, the abundance fitness was -0.028 ± 0.047.

For the variant Q27K, the abundance fitness is -0.132 ± 0.053. In the case of Q27H, the abundance fitness worked out at 0.02 ± 0.063. The same measure, in the same setting: with Q27R the figure was -0.201 ± 0.029; with Q27I, -0.222 ± 0.067; with Q27N, -0.419 ± 0.096.

Take Q27L: the abundance fitness is -0.167 ± 0.035.

Consider L63E, for which the abundance fitness is -0.803 ± 0.09. Still for that read-out and setting: with L63D the figure was -0.785 ± 0.11. As to L63M, the abundance fitness is 0.004 ± 0.045. Same read-out and setting: with F57P the figure was -0.063 ± 0.046. The same measure, in the same setting: with F57W the figure was -0.169 ± 0.031; with F57K, 0.026 ± 0.042; with E72A, -0.017 ± 0.037. On the same count and under the same terms, with E72P the figure was -0.655 ± 0.11; with E72L, 0.004 ± 0.035.

Take E72R: the abundance fitness was -0.068 ± 0.03.

Turning to E72G, the abundance fitness is -0.178 ± 0.033.

Regarding E72K, the abundance fitness was -0.12 ± 0.087. Still for that read-out and setting: with G31D the figure was -0.385 ± 0.08; with G31L, -0.59 ± 0.057. The same measure, in the same setting: with G31M the figure was -0.291 ± 0.058; with G31Q, -0.188 ± 0.054; with G31A, 0.047 ± 0.033. Still for that read-out and setting: with S56M the figure was -0.81 ± 0.15; with S56C, -0.303 ± 0.056; with S56N, -0.145 ± 0.078. On to K64G, for which the abundance fitness was -0.449 ± 0.037. The same measure, in the same setting: with K64I the figure was -0.246 ± 0.083; with K64R, -0.092 ± 0.031; with K64E, -0.3 ± 0.046.

As for K64T, the abundance fitness was -0.118 ± 0.045. Still for that read-out and setting: with L34M the figure was -0.035 ± 0.04; with L34G, -0.854 ± 0.059; with L34F, -0.732 ± 0.17. Still for that read-out and setting: with L34K the figure was -0.441 ± 0.076; with A33R, -0.102 ± 0.031; with A33D, -0.284 ± 0.068. On to A33M, for which the abundance fitness was -0.077 ± 0.041. Same read-out and setting: with A33F the figure was -0.329 ± 0.083; with A33N, -0.477 ± 0.14; with A33K, -0.264 ± 0.061. On the same count and under the same terms, with V30M the figure was -0.655 ± 0.12; with C48W, -0.108 ± 0.036; with C48H, -0.029 ± 0.072. As for C48S, the abundance fitness is 0.029 ± 0.033. On the same count and under the same terms, with K14A the figure was -0.008 ± 0.05; with K14R, -0.077 ± 0.064; with K14I, -0.267 ± 0.23. Same read-out and setting: with S77R the figure was 0.054 ± 0.045; with S77C, -0.184 ± 0.067; with S77V, 0.008 ± 0.042. Still for that read-out and setting: with S77L the figure was -0.028 ± 0.05. In the case of S77W, the abundance fitness is -0.105 ± 0.065. In the case of S77D, the abundance fitness is -0.003 ± 0.064. Still for that read-out and setting: with S77P the figure was 0.003 ± 0.041; with S77F, -0.155 ± 0.13. Same read-out and setting: with S77E the figure was -0.016 ± 0.051; with K62T, -0.059 ± 0.039; with K62F, -0.126 ± 0.086. The same measure, in the same setting: with K62D the figure was -0.045 ± 0.053; with W70P, -0.853 ± 0.11. On to W70Y, for which the abundance fitness is -0.381 ± 0.099.

Take W70H: the abundance fitness is -0.943 ± 0.21. As for W70C, the abundance fitness was -0.698 ± 0.11. With L37I, the abundance fitness is 0.063 ± 0.083. Same read-out and setting: with L37T the figure was 0.048 ± 0.044; with L37H, -0.194 ± 0.072. The same measure, in the same setting: with F25H the figure was -0.266 ± 0.091; with F25K, -0.072 ± 0.053; with F25M, -0.107 ± 0.046. Same read-out and setting: with F25R the figure was -0.321 ± 0.03; with Y38V, -0.103 ± 0.033; with Y38D, -0.036 ± 0.045. Take Y38A: the abundance fitness was -0.069 ± 0.04. Turning to Y38K, the abundance fitness was -0.234 ± 0.05. Still for that read-out and setting: with Y38S the figure was -0.012 ± 0.032.

On to Y38I, for which the abundance fitness was -0.298 ± 0.07.

On to L67D, for which the abundance fitness was -0.759 ± 0.43. Still for that read-out and setting: with L67C the figure was -0.504 ± 0.23; with L67S, -0.619 ± 0.13; with T46N, -0.393 ± 0.1. For T46D, the abundance fitness turned out to be 0.064 ± 0.046. Take T46G: the abundance fitness is -0.643 ± 0.036.

As for I21T, the abundance fitness was -0.179 ± 0.053. Take I21N: the abundance fitness is -0.311 ± 0.075. Still for that read-out and setting: with E10L the figure was 0.128 ± 0.03. As for E10Y, the abundance fitness was 0.054 ± 0.05. Same read-out and setting: with A74L the figure was -0.09 ± 0.037; with A74T, -0.026 ± 0.05; with A74W, -0.172 ± 0.036. Still for that read-out and setting: with A74H the figure was -0.032 ± 0.067; with K69Q, -0.003 ± 0.087; with N59P, -0.559 ± 0.092. Take N59F: the abundance fitness was -0.014 ± 0.086. The same measure, in the same setting: with N59D the figure was 0.105 ± 0.06. Take N59G: the abundance fitness is -0.13 ± 0.029.

Turning to N59A, the abundance fitness was 0.007 ± 0.037. Regarding N59Y, the abundance fitness was -0.103 ± 0.068. Same read-out and setting: with Q54H the figure was -0.2 ± 0.063. Consider Q54V, for which the abundance fitness was -0.535 ± 0.06. On the same count and under the same terms, with Q54G the figure was -0.23 ± 0.038; with Q54L, -0.316 ± 0.049.

The variants in another data set derive from B2. The description is as above. As to conditions: Homo sapiens.
Consider L1H, for which the abundance fitness is -0.174 ± 0.48. Same read-out and setting: with L1C the figure was 0.414 ± 0.19; with L1W, -0.426 ± 0.12. Take L1N: the abundance fitness was 1.01 ± 0.2.

On to L1R, for which the abundance fitness was -0.185 ± 0.14.

In the case of L1A, the abundance fitness is -0.175 ± 0.22. On the same count and under the same terms, with L1F the figure was 0.761 ± 0.073; with L1G, -0.129 ± 0.13; with L1T, 0.035 ± 0.1. Same read-out and setting: with L1S the figure was -0.069 ± 0.089; with L1E, -0.245 ± 0.33. The same measure, in the same setting: with L1K the figure was -0.363 ± 0.14; with L1M, 0.071 ± 0.082. In the case of L1I, the abundance fitness amounted to 0.781 ± 0.11.

Take L1Q: the abundance fitness was -0.468 ± 0.24. P2S: the abundance fitness turned out to be 0.729 ± 0.13. On the same count and under the same terms, with P2L the figure was 0.807 ± 0.12; with P2I, 0.783 ± 0.15; with P2G, 0.588 ± 0.14. Still for that read-out and setting: with P2R the figure was 0.664 ± 0.11; with P2A, 0.708 ± 0.14. Take P2Q: the abundance fitness is 0.184 ± 0.15. Regarding P2C, the abundance fitness was determined as 0.396 ± 0.13. Still for that read-out and setting: with P2D the figure was 0.787 ± 0.15; with P2T, 0.844 ± 0.1. Still for that read-out and setting: with P2K the figure was 0.78 ± 0.15; with P2W, 0.667 ± 0.14.

In the case of P2N, the abundance fitness was found to be 0.758 ± 0.17. The same measure, in the same setting: with P2F the figure was 0.359 ± 0.31. For P2E, the abundance fitness was determined as 0.854 ± 0.14.
